Results reported in patent US20130036520A1.
pIC50: −log10 of the molar value.

Columns and labels:
[1] = biological target: Cry1Ab receptor sites located in BBMV's (brush border membrane vesicles) from Ostrinia nubilalis larval midgut (Ostrinia nubilalis); assay: heterologous radioligand competition, unlabeled DIG-3 against 0.5 nM 125I Cry1Ab on O. nubilalis BBMVs
[2] = biological target: Cry1Ab receptor sites located in BBMV's (brush border membrane vesicles) from Ostrinia nubilalis larval midgut (Ostrinia nubilalis); assay: homologous radioligand competition, unlabeled Cry1Ab against 0.5 nM 125I Cry1Ab on O. nubilalis BBMVs

| Substance | percent displacement of 125I Cry1Ab binding at 300 nM DIG-3 [1] | pIC50 [2] |
| --- | --- | --- |
| DIG-3 toxin, trypsin activated (unlabeled heterologous competitor) | 25% | – |
| Cry1Ab toxin, trypsin activated, non-radioactive (unlabeled homologous competitor) (from UniProt P0A370 29-607) | – | 9.30 |
